Here are results for one protein from patent US20120208753A1 (published 2012).

The data set deals with the molecule itself. The experiment in a line: non-reducing PAGE of protein isolated from CHO cells.

B1: active domain of GDF-6 fused to a FLAG tag (SEQ ID NO: 25) (ligand)
chain: MDYKDDDDKENLYFQGTAFASRHGKRHGKKSRLRCSKKPLHVNFKELGWDDWIIAPLEYEAYHCEGVCDFPLRSHLEPTNHAIIQTLMNSMDPGSTPPSCCVPTKLTPISILYIDAGNNVVYKQYEDMVVESCGCR
notes: It was secreted by CHO cells; the Western blot was run under reducing conditions; also called active fragment of GDF-6; active fragment
Consider B1, for which the binding result is listed as “binds”.
